Legend:
[1] = biological target: T1, recombinant mouse TfR-1 (mouse, UniProt Q62351 89-763); assay: phage ELISA
T1 construct: Recombinant protein coated at 1 ug/ml in the phage ELISA; also called mTfR1; mouse transferrin receptor-1

[2] = biological target: T2, recombinant human TfR-1 (human, UniProt P02786 89-760); assay: phage ELISA
T2 construct: Recombinant protein coated at 1 ug/ml in the phage ELISA; also called hTfR1; human transferrin receptor-1
T2 sequence (P02786 89-760 limits assumed): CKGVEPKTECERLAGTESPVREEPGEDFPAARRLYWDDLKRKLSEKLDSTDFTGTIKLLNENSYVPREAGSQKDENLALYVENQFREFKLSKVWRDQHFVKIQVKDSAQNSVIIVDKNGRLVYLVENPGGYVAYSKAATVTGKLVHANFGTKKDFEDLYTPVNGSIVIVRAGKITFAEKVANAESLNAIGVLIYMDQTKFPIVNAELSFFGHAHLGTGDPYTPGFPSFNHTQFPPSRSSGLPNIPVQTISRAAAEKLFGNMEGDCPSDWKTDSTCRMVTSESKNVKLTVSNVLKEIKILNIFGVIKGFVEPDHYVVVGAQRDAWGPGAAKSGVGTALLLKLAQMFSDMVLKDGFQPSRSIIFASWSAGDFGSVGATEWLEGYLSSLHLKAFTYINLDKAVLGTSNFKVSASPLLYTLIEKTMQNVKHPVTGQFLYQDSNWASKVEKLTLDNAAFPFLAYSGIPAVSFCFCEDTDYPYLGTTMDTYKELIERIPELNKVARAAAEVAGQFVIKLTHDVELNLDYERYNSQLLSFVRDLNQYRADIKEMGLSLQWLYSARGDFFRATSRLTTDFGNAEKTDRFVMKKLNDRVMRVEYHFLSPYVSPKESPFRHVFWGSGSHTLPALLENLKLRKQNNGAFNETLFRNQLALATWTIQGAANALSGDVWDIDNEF

T1 sequence (Q62351 89-763 limits assumed): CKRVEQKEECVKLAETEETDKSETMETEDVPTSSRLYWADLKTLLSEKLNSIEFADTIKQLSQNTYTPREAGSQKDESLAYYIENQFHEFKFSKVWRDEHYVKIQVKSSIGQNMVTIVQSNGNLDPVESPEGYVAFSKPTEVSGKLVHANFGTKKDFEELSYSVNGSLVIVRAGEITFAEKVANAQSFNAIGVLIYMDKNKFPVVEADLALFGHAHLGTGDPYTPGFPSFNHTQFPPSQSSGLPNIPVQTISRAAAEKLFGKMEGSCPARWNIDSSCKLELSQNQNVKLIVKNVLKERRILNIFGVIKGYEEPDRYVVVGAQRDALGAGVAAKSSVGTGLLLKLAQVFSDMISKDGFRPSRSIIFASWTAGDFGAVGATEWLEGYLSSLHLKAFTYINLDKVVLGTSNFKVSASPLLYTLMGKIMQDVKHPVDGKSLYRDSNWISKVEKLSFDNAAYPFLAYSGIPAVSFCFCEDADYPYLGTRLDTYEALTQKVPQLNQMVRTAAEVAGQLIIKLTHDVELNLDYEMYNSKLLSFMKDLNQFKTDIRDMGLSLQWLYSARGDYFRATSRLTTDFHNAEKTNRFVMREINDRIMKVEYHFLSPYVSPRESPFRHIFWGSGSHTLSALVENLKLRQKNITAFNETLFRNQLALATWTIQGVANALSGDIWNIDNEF

Binder	A450 [1] [A450]	A450 [2] [A450]
Clone 8.38 (VNAR, VNAR on phage; Clone 8 framework) VNAR: ARVDQTPQTITKETGESLTINCVLRDSNCALPSTYWYRKKSGSTNEESISKGGRYVETVNSGSKSFSLRINDLTVEDSGTYRCKVIAQLVLNLRGCNYRKHDVYGDGTAVTVNA	0.071	0.075
Clone 8.62 (VNAR, VNAR on phage; Clone 8 framework) VNAR: ARVDQTPQTITKETGESLTINCVLRDSNCALPSTYWYRKKSGSTNEESISKGGRYVETVNSGSKSFSLRINDLTVEDSGTYRCKVIAQLSSILRGCNYAAGDVYGDGTAVTVNA	0.063	0.056
Clone 8.45 (VNAR, VNAR on phage; Clone 8 framework) VNAR: ARVDQTPQTITKETGESLTINCVLRDSNCALPSTYWYRKKSGSTNEESISKGGRYVETVNSGSKSFSLRINDLTVEDSGTYRCKVIAQLSSILRGCNYNMEDVYGDGTAVTVNA	0.067	0.06
Clone 8.68 (VNAR, VNAR on phage; Clone 8 framework) VNAR: ARVDQTPQTITKETGESLTINCVLRDSNCALPSTYWYRKKSGSTNEESISKGGRYVETVNSGSKSFSLRINDLTVEDSGTYRCKVIAQLSSILSSCHYRKHDVYGDGTAVTVNA	0.062	0.056
Clone 8.43 (VNAR, VNAR on phage; Clone 8 framework) VNAR: ARVDQTPQTITKETGESLTINCVLRDSNCALPSTYWYRKKSGSTNEESISKGGRYVETVNSGSKSFSLRINDLTVEDSGTYRCKVIAQLSSILKPCWYRKHDVYGDGTAVTVNA	0.067	0.093
Clone 8.63 (VNAR, VNAR on phage; Clone 8 framework) VNAR: ARVDQTPQTITKETGESLTINCVLRDSNCALPSTYWYRKKSGSTNEESISKGGRYVETVNSGSKSFSLRINDLTVEDSGTYRCKVYRYLSSILRGCNYRKHDVYGDGTAVTVNA	0.063	0.071
Clone 8.55 (VNAR, VNAR on phage; Clone 8 framework) VNAR: ARVDQTPQTITKETGESLTINCVLRDSNCALPSTYWYRKKSGSTNEESISKGGRYVETVNSGSKSFSLRINDLTVEDSGTYRCKVIAQLSSILFWCAYRKHDVYGDGTAVTVNA	0.064	0.055
Clone 8.42 (VNAR, VNAR on phage; Clone 8 framework) VNAR: ARVDQTPQTITKETGESLTINCVLRDSNCALPSTYWYRKKSGSTNEESISKGGRYVETVNSGSKSFSLRINDLTVEDSGTYRCKVIAQLFIDLRGCNYRKHDVYGDGTAVTVNA	0.068	0.062
Clone 8.61 (VNAR, VNAR on phage; Clone 8 framework) VNAR: ARVDQTPQTITKETGESLTINCVLRDSNCALPSTYWYRKKSGSTNEESISKGGRYVETVNSGSKSFSLRINDLTVEDSGTYRCKVIAQLSSILQRCNYRKHDVYGDGTAVTVNA	0.063	0.067
Clone 8.48 (VNAR, VNAR on phage; Clone 8 framework) VNAR: ARVDQTPQTITKETGESLTINCVLRDSNCALPSTYWYRKKSGSTNEESISKGGRYVETVNSGSKSFSLRINDLTVEDSGTYRCKVIAQLSSILRGCNYMMYDVYGDGTAVTVNA	0.066	0.082
Clone 8.47 (VNAR, VNAR on phage; Clone 8 framework) VNAR: ARVDQTPQTITKETGESLTINCVLRDSNCALPSTYWYRKKSGSTNEESISKGGRYVETVNSGSKSFSLRINDLTVEDSGTYRCKVQTTLSSILRGCNYRKHDVYGDGTAVTVNA	0.067	0.072
Clone 8.54 (VNAR, VNAR on phage; Clone 8 framework) VNAR: ARVDQTPQTITKETGESLTINCVLRDSNCALPSTYWYRKKSGSTNEESISKGGRYVETVNSGSKSFSLRINDLTVEDSGTYRCKVIASAVSILRGCNYRKHDVYGDGTAVTVNA	0.065	0.072
Clone 8.57 (VNAR, VNAR on phage; Clone 8 framework) VNAR: ARVDQTPQTITKETGESLTINCVLRDSNCALPSTYWYRKKSGSTNEESISKGGRYVETVNSGSKSFSLRINDLTVEDSGTYRCKVIAQLGNLLRGCNYRKHDVYGDGTAVTVNA	0.063	0.083
Clone 8.46 (VNAR, VNAR on phage; Clone 8 framework) VNAR: ARVDQTPQTITKETGESLTINCVLRDSNCALPSTYWYRKKSGSTNEESISKGGRYVETVNSGSKSFSLRINDLTVEDSGTYRCKVIAQLSSYVVGCNYRKHDVYGDGTAVTVNA	0.067	0.056
Clone 8.69 (VNAR, VNAR on phage; Clone 8 framework) VNAR: ARVDQTPQTITKETGESLTINCVLRDSNCALPSTYWYRKKSGSTNEESISKGGRYVETVNSGSKSFSLRINDLTVEDSGTYRCKVIAQLSSAPAGCNYRKHDVYGDGTAVTVNA	0.061	0.065
Clone 8.44 (VNAR, VNAR on phage; Clone 8 framework) VNAR: ARVDQTPQTITKETGESLTINCVLRDSNCALPSTYWYRKKSGSTNEESISKGGRYVETVNSGSKSFSLRINDLTVEDSGTYRCKVIAQLSSILRGCNYLSMDVYGDGTAVTVNA	0.067	0.056

Binder	A450 [1] [A450]	A450 [2] [A450]
Clone 8.53 (VNAR, VNAR on phage; Clone 8 framework) VNAR: ARVDQTPQTITKETGESLTINCVLRDSNCALPSTYWYRKKSGSTNEESISKGGRYVETVNSGSKSFSLRINDLTVEDSGTYRCKVIAQLSSILRGCNYAWLDVYGDGTAVTVNA	0.065	0.051
Clone 8.49 (VNAR, VNAR on phage; Clone 8 framework) VNAR: ARVDQTPQTITKETGESLTINCVLRDSNCALPSTYWYRKKSGSTNEESISKGGRYVETVNSGSKSFSLRINDLTVEDSGTYRCKVIAEMGSILRGCNYRKHDVYGDGTAVTVNA	0.065	0.06
Clone 8.67 (VNAR, VNAR on phage; Clone 8 framework) VNAR: ARVDQTPQTITKETGESLTINCVLRDSNCALPSTYWYRKKSGSTNEESISKGGRYVETVNSGSKSFSLRINDLTVEDSGTYRCKVIAQLSSILRGCVEPKHDVYGDGTAVTVNA	0.062	0.051
Clone 8.51 (VNAR, VNAR on phage; Clone 8 framework) VNAR: ARVDQTPQTITKETGESLTINCVLRDSNCALPSTYWYRKKSGSTNEESISKGGRYVETVNSGSKSFSLRINDLTVEDSGTYRCKVIAQLSSDHPGCNYRKHDVYGDGTAVTVNA	0.065	0.058
Clone 8.40 (VNAR, VNAR on phage; Clone 8 framework) VNAR: ARVDQTPQTITKETGESLTINCVLRDSNCALPSTYWYRKKSGSTNEESISKGGRYVETVNSGSKSFSLRINDLTVEDSGTYRCKVIAQLYVGLRGCNYRKHDVYGDGTAVTVNA	0.07	0.066
Clone 8.41 (VNAR, VNAR on phage; Clone 8 framework) VNAR: ARVDQTPQTITKETGESLTINCVLRDSNCALPSTYWYRKKSGSTNEESISKGGRYVETVNSGSKSFSLRINDLTVEDSGTYRCKVIAPQKSILRGCNYHKIDVYGDGTAVTVNA	0.068	0.072
Clone 8.64 (VNAR, VNAR on phage; Clone 8 framework) VNAR: ARVDQTPQTITKETGESLTINCVLRDSNCALPSTYWYRKKSGSTNEESISKGGRYVETVNSGSKSFSLRINDLTVEDSGTYRCKVIAQLAFWLRGCNYRKHDVYGDGTAVTVNA	0.062	0.083
Clone 8.56 (VNAR, VNAR on phage; Clone 8 framework) VNAR: ARVDQTPQTITKETGESLTINCVLRDSNCALPSTYWYRKKSGSTNEESISKGGRYVETVNSGSKSFSLRINDLTVEDSGTYRCKVIAQLSSILRGCTFDKHDVYGDGTAVTVNA	0.064	0.051
Clone 8.52 (VNAR, VNAR on phage; Clone 8 framework) VNAR: ARVDQTPQTITKETGESLTINCVLRDSNCALPSTYWYRKKSGSTNEESISKGGRYVETVNSGSKSFSLRINDLTVEDSGTYRCKVIAQLSSILRGCDRWKHDVYGDGTAVTVNA	0.065	0.049
Clone 8.65 (VNAR, VNAR on phage; Clone 8 framework) VNAR: ARVDQTPQTITKETGESLTINCVLRDSNCALPSTYWYRKKSGSTNEESISKGGRYVETVNSGSKSFSLRINDLTVEDSGTYRCKVIAQLSSIHDGCNYRKHDVYGDGTAVTVNA	0.062	0.081
Clone 8.39 (VNAR, VNAR on phage; Clone 8 framework) VNAR: ARVDQTPQTITKETGESLTINCVLRDSNCALPSTYWYRKKSGSTNEESISKGGRYVETVNSGSKSFSLRINDLTVEDSGTYRCKVIAQLSSILDDCEYRKHDVYGDGTAVTVNA	0.07	0.063
Clone 8.50 (VNAR, VNAR on phage; Clone 8 framework) VNAR: ARVDQTPQTITKETGESLTINCVLRDSNCALPSTYWYRKKSGSTNEESISKGGRYVETVNSGSKSFSLRINDLTVEDSGTYRCKVIANLSSILRGCNYRKHDVYGDGTAVTVNA	0.065	0.057
Clone 8.59 (VNAR, VNAR on phage; Clone 8 framework) VNAR: ARVDQTPQTITKETGESLTINCVLRDSNCALPSTYWYRKKSGSTNEESISKGGRYVETVNSGSKSFSLRINDLTVEDSGTYRCKVIAQLSSHDHGCNYRKHDVYGDGTAVTVNA	0.063	0.073
Clone 8.66 (VNAR, VNAR on phage; Clone 8 framework) VNAR: ARVDQTPQTITKETGESLTINCVLRDSNCALPSTYWYRKKSGSTNEESISKGGRYVETVNSGSKSFSLRINDLTVEDSGTYRCKVIAQLSSILRGCNYLAHDVYGDGTAVTVNA	0.062	0.052
Clone 8.58 (VNAR, VNAR on phage; Clone 8 framework) VNAR: ARVDQTPQTITKETGESLTINCVLRDSNCALPSTYWYRKKSGSTNEESISKGGRYVETVNSGSKSFSLRINDLTVEDSGTYRCKVIAQLSSAGMGCNYRKHDVYGDGTAVTVNA	0.063	0.059
Clone 8.60 (VNAR, VNAR on phage; Clone 8 framework) VNAR: ARVDQTPQTITKETGESLTINCVLRDSNCALPSTYWYRKKSGSTNEESISKGGRYVETVNSGSKSFSLRINDLTVEDSGTYRCKVIAQLSSILLTCLYRKHDVYGDGTAVTVNA	0.063	0.073
